Experiments:
Assay in all cases: ELISA, variant from culture supernatant on Ni-NTA plate [continued]
[1] = target: 391-2-DS-Cav1-BZGJ9deleteFS
391-2-DS-Cav1-SC-IP-1 = target: 391-2-DS-Cav1-SC-IP-1
391-2-DS-Cav1-BZGJ9 = target: 391-2-DS-Cav1-BZGJ9

## motavizumab (antibody)
[1]
  ELISA binding value: 0.152
391-2-DS-Cav1-SC-IP-1
  ELISA binding value: 1.1
391-2-DS-Cav1-BZGJ9
  ELISA binding value: 0.5
